Test results reported in patent US4478746A, “Glycosylated insulin derivatives” (priority 1984, dated 1984).

Columns and labels:
[1] = Bulk aggregation study (stirred aqueous solutions, aggregation visually observed); format: physicochemical; details: aqueous solution 0.1 mg/ml insulin, stirred at 1555 rpm until aggregation visually observed or up to two weeks
Method: (§1) Bulk aggregation studies with free insulin compared with glycosylated insulins were carried out by two methods. In a bulk aggregation study, various aqueous insulin and glycosylated insulin solutions containing 0.1 mg/ml of insulin were stirred at 1555 rpm until aggregation was visually observed or up to two weeks. In a second test, solutions containing the same insulin concentration were deposited on polyurethane (Biomer) and microscopically observed for aggregation.

[2] = Aggregation test on polyurethane (Biomer), microscopically observed; format: physicochemical; details: 0.1 mg/ml insulin solution deposited on polyurethane (Biomer)
Method: as §1

blood sugar level = experiment: Blood sugar depression (BSD) test; format: in vivo; details: rats fasted twenty hours, 1 mg/kg intraperitoneal, 20 minutes after injection; control (baseline) 64.62 ± 0.61
Method: The bioactivity of the glycosated insulins described herein was determined by a blood sugar depression test and compared to commercial insulin preparations and controls. In this test, replicates of standard laboratory rats were fasted for twenty hours. After measuring baseline blood sugar levels, a 1 mg/kg dose of either free or glycosylated insulin was injected via an intraperitoneal route. The blood sugar level in each rat was measured colormetrically 20 minutes after the injection.

| Substance | Time required for aggregation, Bulk [1] | Time required for aggregation, Polyurethane [2] | Blood Sugar Concentration after 20 min. IP. injection (± S.E.M.) (blood sugar level) |
| --- | --- | --- | --- |
| p-(α-D-glucopyranosyloxy)-phenyl-N-succinamyl insulin | 2 weeks | 2 weeks | 40.87 ± 1.32 mg/dL |
| p-(α-D-mannopyranosyloxy)-phenyl-N-succinamyl insulin | 2 weeks | 2 weeks | 44.80 ± 2.37 mg/dL |
| glucosamidoglutaryl insulin | – | – | 45.92 ± 3.30 mg/dL |
| Glucosamidosuccinyl insulin | – | – | 37.80 ± 1.13 mg/dL |
| SIGMA INS (21F-0375): commercial insulin preparation (Sigma) used as comparison | – | – | 32.66 ± 1.10 mg/dL |
| insulin [Free Insulin, reference compound] | 2 to 3 days | 1 to 2 days | – |
| p-(α-D-mannopyranosyloxy)-phenyl-N-glutaramyl insulin | – | – | 40.60 ± 0.80 mg/dL |
| p-α-D-glucopyranosyloxy)-phenyl-N-glutaramyl insulin | – | – | 40.40 ± 2.53 mg/dL |
| p-(α-D-glucopyranosyloxy)-phenyl-thiocarbamoyl Insulin | 2 weeks | 8 days | 44.67 ± 2.21 mg/dL |
